According to patent publication US20140044730A1 (Regeneron, published 2014):
Where two headings read alike, the source gives them in different places.

Legend:
[1] = molecular target: T1, human PCSK9 with a C-terminal myc-myc-hexahistidine tag (human, UniProt Q8NBP7 31-692, limits assumed); test: blocking ELISA pH 7.2, 500 pM hPCSK9-mmH vs coated hLDLR EGFA-hFc
T1 construct: also called hPCSK9-mmH; hPCSK9-mmh; not shown: C-terminal myc-myc-hexahistidine tag

[2] = molecular target: T1, human PCSK9 with a C-terminal …; test: SPR 25C pH 6.0, purified mAb captured
Procedure: (§1) A Biacore CM4 sensor chip was derivatized with a monoclonal mouse anti-human Fc antibody to capture human antibodies. The histidine substitution variant anti-PCSK9 antibodies were captured onto the anti-human Fc sensor surface from culture medium after transient expression in Chinese hamster ovary (CHO) cells. […] Kinetic association (kₐ) and dissociation (kd) rate constants were determined by processing and fitting the data to a 1:1 binding model using Scrubber 2.0 curve fitting software. Binding dissociation equilibrium constants (KD) and dissociative half-lives (t_{1/2}) were calculated from the kinetic rate constants as: KD (M)=kd/kₐ; and t_{1/2} (min)=(In2/(60*kd).
(§2) Also included in these experiments were several control/comparator antibodies. All measurements were taken at 25° C.

[3] = molecular target: T1, human PCSK9 with a C-terminal …; test: blocking ELISA pH 7.2; actual obtained value, below theoretical bottom of the assay
Procedure: (§3) Briefly, hLDLR EGFA-hFc was coated at 2 μg/mL in PBS on a 96-well microtiter plate overnight at 4° C. followed by blocking with a solution of 0.5% (w/v) BSA in PBS.
(§4) The equilibrated sample solutions were then transferred to a LDLR EGFA-hFc coated plate.

[4] = molecular target: T1, human PCSK9 with a C-terminal …; test: cell-based or functional assay
[5] = molecular target: T1, human PCSK9 with a C-terminal …; test: SPR (Biacore), 37 °C; antibody captured on anti-human Fc surface, hPCSK9-mmH injected (3.125-50 nM); association at pH 7.4, dissociation at pH 7.4
Procedure: (§5) A Biacore CM4 sensor chip was derivatized with a Fab′2 polyclonal anti-human Fc antibody to capture human antibodies. […] Dissociation (kd) rate constants were determined by processing and fitting the data using Scrubber version 2.0 curve fitting software. Dissociative half-lives (t_{1/2}) were calculated from the dissociation rate constants as: t_{1/2} (min)=(In2/kd)/60.

[6] = molecular target: T1, human PCSK9 with a C-terminal …; test: SPR 25C pH 7.4, purified mAb captured
Procedure: as §1
All measurements were taken at 25° C.

[7] = molecular target: T1, human PCSK9 with a C-terminal …; test: blocking ELISA pH 5.75; actual obtained value, below theoretical bottom of the assay
Procedure: as §3, §4

[8] = molecular target: T1, human PCSK9 with a C-terminal …; test: SPR (Biacore), 37 °C; antibody captured on anti-human Fc surface, hPCSK9-mmH injected (3.125-50 nM); association at pH 7.4, dissociation at pH 7.2
Procedure: as §5

[9] = molecular target: T1, human PCSK9 with a C-terminal …; test: SPR (Biacore), 37 °C; antibody captured on anti-human Fc surface, hPCSK9-mmH injected (3.125-50 nM); association at pH 7.4, dissociation at pH 6.0
Procedure: as §5

[10] = molecular target: T1, human PCSK9 with a C-terminal …; test: SPR (Biacore), 37 °C; antibody captured on anti-human Fc surface, hPCSK9-mmH injected (3.125-50 nM); association at pH 7.4, dissociation at pH 5.75
Procedure: as §5

[11] = molecular target: T1, human PCSK9 with a C-terminal …; test: SPR 25C, purified mAb captured
Procedure: as §1, §2

[12] = molecular target: T1, human PCSK9 with a C-terminal …; test: blocking ELISA pH 5.75, 500 pM hPCSK9-mmH vs coated hLDLR EGFA-hFc
Procedure: as §3, §4

[13] = molecular target: T1, human PCSK9 with a C-terminal …; test: blocking ELISA, hPCSK9-mmH vs coated hLDLR EGFA-hFc
Procedure: as §3, §4

[14] = molecular target: T1, human PCSK9 with a C-terminal …; test: cell-based or functional assay; remark: listed apart in the source
[15] = molecular target: T2, human PCSK9 with a C-terminal myc-myc hexahistidine tag and a D374Y mutation (human, UniProt Q8NBP7 31-692, limits assumed); test: cell-based or functional assay
[16] = molecular target: T3, recombinant cynomolgus monkey PCSK9 with a C-terminal myc-myc hexahistidine tag (cynomolgus monkey, UniProt A8T662 31-692 (Macaca nemestrina entry), limits assumed); test: cell-based or functional assay
[17] = molecular target: T1, human PCSK9 with a C-terminal …; test: blocking ELISA pH 7.2, 500 pM hPCSK9-mmH vs coated hLDLR EGFA-hFc, exp #1
Source text: (§6) The equilibrated sample solutions were then transferred to the LDLR EGFA-hFc coated plate prepared as described above.

[18] = molecular target: T1, human PCSK9 with a C-terminal …; test: SPR (Biacore), 37 °C; antibody captured on anti-human Fc surface, hPCSK9-mmH injected (3.125-50 nM); association at pH 7.4, dissociation at pH 7.4; remark: listed apart in the source
Procedure: (§7) All experiments were carried out at 37° C.
as §5

[19] = molecular target: T1, human PCSK9 with a C-terminal …; test: SPR (Biacore), 37 °C; antibody captured on anti-human Fc surface, hPCSK9-mmH injected (3.125-50 nM); association at pH 7.4, dissociation at pH 5.75; remark: listed apart in the source
Procedure: as §7, §5

[20] = molecular target: T1, human PCSK9 with a C-terminal …; test: SPR 25C, mAb captured;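 also: biacore CM4 surface bearing anti-human Fc antibody capturing the mAbs, PCSK9 binding and release rates fitted with a one-to-one model, KD and half-life derived from those rates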
[21] = molecular target: T1, human PCSK9 with a C-terminal …; test: SPR (Biacore), 37 °C; antibody captured on anti-human Fc surface, hPCSK9-mmH injected (3.125-50 nM); association at pH 7.4, dissociation at pH 6.0; remark: listed apart in the source
Procedure: as §7, §5

[22] = molecular target: T1, human PCSK9 with a C-terminal …; test: blocking ELISA pH 7.2, 500 pM hPCSK9-mmH vs coated hLDLR EGFA-hFc, exp #2
Source text: as §6

[23] = molecular target: T1, human PCSK9 with a C-terminal …; test: SPR 25C pH 7.2, mAb captured;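 also: biacore SPR, antibodies captured on anti-human Fc CM4 chip with PCSK9 flowed as analyte, rate constants from a one-to-one kinetic fit, KD and half-life derived from them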
Procedure: as §1

[24] = molecular target: T1, human PCSK9 with a C-terminal …; test: SPR 25C pH 5.75, mAb captured;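 also: biacore surface with anti-human Fc antibody capturing the antibodies, PCSK9 as analyte, one-to-one kinetic fit, KD as kd over ka, half-life derived from kd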
Procedure: as §1

[25] = molecular target: T1, human PCSK9 with a C-terminal …; test: SPR 25C pH 7.2, mAb captured; pH 7.2, 25 C;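 as to t½: biacore SPR, antibodies captured on anti-human Fc CM4 chip with PCSK9 flowed as analyte, rate constants from a one-to-one kinetic fit, KD and half-life derived from them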
Procedure: as §1

[26] = molecular target: T2, human PCSK9 with a C-terminal myc-myc …; test: cell-based or functional assay; remark: listed apart in the source
[27] = molecular target: T3, recombinant cynomolgus monkey PCSK9 …; test: cell-based or functional assay; remark: listed apart in the source
[28] = molecular target: T1, human PCSK9 with a C-terminal …; test: SPR (Biacore), 37 °C; antibody captured on anti-human Fc surface, hPCSK9-mmH injected (3.125-50 nM); association at pH 7.4, dissociation at pH 7.2; remark: listed apart in the source
Procedure: as §5

[29] = molecular target: T1, human PCSK9 with a C-terminal …; test: SPR 25C pH 7.2, mAb captured; pH 7.2 (neutral), 25 C
Procedure: as §1

| IC50 [1] [nM] | Kd [2] [nM] | koff [2] [s⁻¹] | kon [2] [M⁻¹ s⁻¹] | t½ [2] [min] | IC50, LDL uptake in HepG2 cells, 100 nM hPCSK9-mmH [4] [nM] | t½ (dissociative half-life) [5] [min] | Kd [6] [nM] | koff [6] [s⁻¹] | kon [6] [M⁻¹ s⁻¹] | t½ [6] [min] | t½ (dissociative half-life) [8] [min] | t½ (dissociative half-life) [9] [min] | t½ (dissociative half-life) [10] [min] | KD ratio pH 6.0/pH 7.4 [11] | ka ratio pH 6.0/pH 7.4 [11] | kd ratio pH 6.0/pH 7.4 [11] | t½ ratio pH 6.0/pH 7.4 [11] | IC50 [12] [nM] | IC50 ratio (pH 5.75/pH 7.2) [13] | Binder | other results |
| --- | --- | --- | --- | --- | --- | --- | --- | --- | --- | --- | --- | --- | --- | --- | --- | --- | --- | --- | --- | --- | --- |
| < 0.125 | 0.25 | 0.000162 | 649000 | 71.1 | 31 | 7 | 0.616 | 0.000308 | 499000 | 37.6 | 13.8 | 13 | 27.8 | 0.41 | 1.3 | 0.53 | 1.89 | < 0.125 | 1.8 | 316P(v1) (antibody, IgG1, V domains shown, also called 316(v1)) VH: EVQLVESGGGLVQPGGSLRLSCAASGFTFNNYAMNWVRQAPGKGLDWVSTISGSGGTTNYADSVKGRFIISRDSSKHTLYLQMNSLRAEDTAVYYCAKDSNWGNFDLWGRGTLVTVSS VL: not shown | IC50 [3]: 0.064 nM; IC50 [7]: 0.113 nM; IC50, LDL uptake in HepG2 cells, 50 nM hPCSK9-mmH [14]: 7.8 nM; IC50, LDL uptake in HepG2 cells, 2 nM hPCSK9-D374Y-mmH [15]: 2 nM; IC50, LDL uptake in HepG2 cells, 50 nM MfPCSK9-mmH [16]: 10.3 nM |
| 0.319 | 7.04 | 0.00075 | 107000 | 15.4 | 32 |  | 1.06 | 8.98e-05 | 84700 | 129 |  |  |  | 6.64 | 1.26 | 8.35 | 0.12 | 1.75 | 5.5 | VH-D106H (antibody, V domains shown, His variant of 300N) VH: EMQLVESGGGLVQPGGSLRLSCAASGFTFSSHWMKWVRQAPGKGLEWVANINQDGSEKYYVDSVKGRFTISRDNAKNSLFLQMNSLRAEDTAVYYCARDIVLMVYHMDYYYYGMDVWGQGTTVTVSS VL: not shown | IC50 [17]: 0.349 nM; t½ (dissociative half-life) [18]: 36 min; t½ (dissociative half-life) [19]: 2.8 min; KD ratio pH 5.75/pH 7.2 [20]: 4.34; t½ ratio pH 5.75/pH 7.2 [20]: 0.1; t½ (dissociative half-life) [21]: 3.5 min; IC50 [22]: 0.395 nM; t½ [23]: 35 min; Kd [24]: 9.59 nM; t½ [24]: 3.4 min; Kd [25]: 2.21 nM; IC50, LDL uptake in HepG2 cells, 2 nM hPCSK9-D374Y-mmH [26]: 2.7 nM; IC50, LDL uptake in HepG2 cells, 50 nM MfPCSK9-mmH [27]: 12.7 nM; t½ (dissociative half-life) [28]: 42 min |
| 0.221 | 1.14 | 0.000313 | 274000 | 36.9 | 32 | 34.6 | 0.546 | 7.93e-05 | 145000 | 146 | 46.2 | 7.1 | 7 | 2.09 | 1.89 | 3.94 | 0.25 | 0.268 | 1.2 | 300N(v2) (antibody, IgG4, V domains shown) VH: EMQLVESGGGLVQPGGSLRLSCAASGFTFSSHWMKWVRQAPGKGLEWVANINQDGSEKYYVDSVKGRFTISRDNAKNSLFLQMNSLRAEDTAVYYCARDIVLMVYDMDYYYYGMDVWGQGTTVTVSS VL: not shown | IC50, LDL uptake in HepG2 cells, 50 nM hPCSK9-mmH [14]: 10.3 nM; IC50, LDL uptake in HepG2 cells, 2 nM hPCSK9-D374Y-mmH [15]: 2 nM; IC50, LDL uptake in HepG2 cells, 50 nM MfPCSK9-mmH [16]: 15.7 nM |
|  |  |  |  |  |  |  |  |  |  |  |  |  |  |  |  |  |  |  |  | VH-M114H (antibody, V domains shown, His variant of 300N) VH: EMQLVESGGGLVQPGGSLRLSCAASGFTFSSHWMKWVRQAPGKGLEWVANINQDGSEKYYVDSVKGRFTISRDNAKNSLFLQMNSLRAEDTAVYYCARDIVLMVYDMDYYYYGHDVWGQGTTVTVSS VL: not shown | Kd [29]: 386 nM; t½ [29]: 0 h |
